Measurements reported in patent US7141434B2, “Methods of identifying compounds that modulate IL-4 receptor-mediated IgE synthesis utilizing an adenosine kinase” (Rigel Pharmaceuticals, Inc., priority 2002, dated 2006).

Columns and labels:
human AK (hAK) = molecular target: T1, human AK (hAK) (Homo sapiens, UniProt P55263); test: β-galactosidase yeast two hybrid (YTH) interaction assay; assay type: binding; settings: qualitative
T1 construct: expressed in transfected cells; prey cDNA from the A5T4 reporter cell line (derived from BJAB B-cells)
Procedure: Potential binding partners for peptide AR02E8 wt were identified in a β-galactosidase yeast two-hybrid (YTH) assay using peptide AR02E8 wt as bait and a cDNA library constructed from the A5T4 reporter cell line as prey. Binding was assessed by β-galactosidase quantification using BetaFluor (Novagen) as a substrate. A negative interaction control (no cDNA fused downstream of the GAL4 activation domain sequence) was also run. A general outline of the YTH assay is illustrated in FIG. 5A. Following clustering, filtering to remove non-specific bait hits (e.g., GFP and BFP), singletons and clusters recognized by 10 or more cDNA baits (based upon historical YTH assays), and prioritization, 45 prey clones were identified as hits.
Potential targets identified in the YTH assay were reconfirmed as generally outlined in FIG. 6. The cDNA clones identified as hits in the YTH assay were purified and rescreened for interaction with the AR02E8 wt peptide in a YTH assay. The hit clones were also screened in a control assay for interaction with the BFP using a vector (pGBKT7) that contained only the BFP and not the AR02E8 peptide. At this stage, 27 putative target clones remained.
The interaction of AR02E8 wt peptide and its mutants with the clones identified as potential targets for the peptide AR02E8 wt was then quantified in a β-galactosidase YTH assay. The YTH assay was performed in the manner described above. A general outline of this YTH assay is illustrated in FIG. 5B. For each clone tested, an interaction profile was developed by comparing the β-galactosidase activity of each mutant to that of the wild type peptide as described above.
The interaction of these IOF, ROF and LOF mutants with different polypeptides encoded by the putative target clones were quantified using the YTH assay described above. […]

[1] = system: ST486 endogenous α promoter; test: TAQMAN assay of endogenous germline α promoter transcription in ST486 cells; assay type: cell-based; settings: ST486 cells stimulated with TGF-β 40 ng/ml; average of 3 values; p=0.1120
Procedure: The assay was similar to that described in the immediately preceding section, except that ST486 cells (ATCC # CRL-1647) engineered to express the tetracycline-regulated transactivator were infected and the infected cells were stimulated with TGF-β (40 ng/ml; Peprotech). The primers and probe, which are specific for the transcription product driven by the ST486 endogenous α promoter, were as follows (the probe was labeled at the 5′-end with Fam and at the 3′-end with Tamra): […]

[2] = system: IL-4 induced germline ε transcription (ε promoter reporter in A5T4 cells); test: Re-infection of naive A5T4 reporter cells with BFP-peptide fusion (GFP reporter ratio); assay type: cell-based, human; settings: based on reporter ratio; % change calculated after subtracting 1.0 from the ratios
Procedure: The ability of peptide AR02E8 wt to inhibit germline ε transcription was confirmed in naive cells. Briefly, Phoenix cells were transfected with a retroviral vector encoding a BFP-AR02E8 wt peptide fusion as described in WO 99/58663 and WO 97/27213. Naïve A5T4 cells were infected with the resultant virions and grown for 3 days. The infected cells were stimulated with IL-4 (60 U/mL) and, after 3 days, the cells were assessed by FACS for BFP and GFP. […] The BFP fluorescence data corresponding to the BFP^+ and BFP^− populations are provided in Panel A. The GFP fluorescence data corresponding to the BFP^+ and BFP-populations are presented in Panel B. The reporter ratio for this purpose is determined as the geometric mean of the GFP fluorescence of the BFP^− population divided by the geometric mean of the GFP fluorescence of the BFP^+ population. The reporter ratio for the AR02E8 in this re-infection assay was 2.93. […]
TABLE 2 depicts the amino acid sequences (the dual alanine/glycine mutations are underlined) of the mutants tested and the measured reporter ratios when screening in the A5T4 reporter line.

T1 sequence (P55263 whole entry): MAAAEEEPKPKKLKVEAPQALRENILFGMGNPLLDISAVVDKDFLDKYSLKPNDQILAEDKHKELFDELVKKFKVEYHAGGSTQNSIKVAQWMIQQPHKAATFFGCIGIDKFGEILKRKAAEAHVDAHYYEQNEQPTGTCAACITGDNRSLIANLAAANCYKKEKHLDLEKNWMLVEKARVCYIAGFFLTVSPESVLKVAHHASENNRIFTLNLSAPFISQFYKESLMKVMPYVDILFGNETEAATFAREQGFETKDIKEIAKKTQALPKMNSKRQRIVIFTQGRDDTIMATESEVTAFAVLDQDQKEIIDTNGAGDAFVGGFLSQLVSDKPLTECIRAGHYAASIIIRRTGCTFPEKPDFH

| Sequence | binding to human AK in yeast two hybrid interaction assay (human AK (hAK)) | endogenous α inhibition ratio [1] | functional category as compared to the wild type peptide [2] |
| --- | --- | --- | --- |
| DTMQVQCGAGRSGYVVAFWDVGP (peptide encoded by synthetic oligomer) [AR02E8VC, dual alanine/glycine mutant of AR02E8 wt] | found to bind human AK (hAK) |  |  |
| DTMQVQCGVCRSGYVVAFWDVGP (peptide encoded by synthetic oligomer) [AR02E8 wt, 23-residue peptide from a random retroviral library, expressed as BFP-peptide fusion] | found to bind human AK (hAK) | 0.79 |  |
| DTMQVQCGVCRSGAGVAFWDVGP (peptide encoded by synthetic oligomer) [AR02E8YV, dual alanine/glycine mutant of AR02E8 wt, loss of function] |  |  | LOF (Cells expressing a loss of function (LOF) mutant have a reporter ratio of <1.11) |
| DTMQVQCGVCAGGYVVAFWDVGP (peptide encoded by synthetic oligomer) [AR02E8RS, dual alanine/glycine mutant of AR02E8 wt] | found to bind human AK (hAK) |  |  |
